B1: PHD finger protein 7 (natural protein, human, UniProt Q9BWX1-1 1-381, looked up)
chain: MKTVKEKKECQRLRKSAKTRRVTQRKPSSGPVCWLCLREPGDPEKLGEFLQKDNISVHYFCLILSSKLPQRGQSNRGFHGFLPEDIKKEAARASRKICFVCKKKGAAINCQKDQCLRNFHLPCGQERGCLSQFFGEYKSFCDKHRPTQNIQHGHVGEESCILCCEDLSQQSVENIQSPCCSQAIYHRKCIQKYAHTSAKHFFKCPQCNNRKEFPQEMLRMGIHIPDRDAAWELEPGAFSDLYQRYQHCDAPICLYEQGRDSFEDEGRWCLILCATCGSHGTHRDCSSLRSNSKKWECEECSPAAATDYIPENSGDIPCCSSTFHPEEHFCRDNTLEENPGLSWTDWPEPSLLEKPESSRGRRSYSWRSKGVRITNSCKKSK
notes: PHD finger protein 7, human; also called PHF7; source: insect cell/baculovirus, purified, spotted (Invitrogen Protoarray v4.0)
B2: Nucleosome assembly protein 1-like 5 (natural protein, human, UniProt Q96NT1 1-182, looked up)
chain: MADSENQGPAEPSQAAAAAEAAAEEVMAEGGAQGGDCDSAAGDPDSAAGQMAEEPQTPAENAPKPKNDFIESLPNSVKCRVLALKKLQKRCDKIEAKFDKEFQALEKKYNDIYKPLLAKIQELTGEMEGCAWTLEGEEEEEEEYEDDEEEGEDEEEEEAAAEAAAGAKHDDAHAEMPDDAKK
notes: Nucleosome assembly protein 1-like 5, human; also called NAP1L5; source: insect cell/baculovirus, purified, spotted (Invitrogen Protoarray v4.0)
B3: Adenine phosphoribosyltransferase (natural protein, human, UniProt P07741-1 1-180, looked up)
chain: MADSELQLVEQRIRSFPDFPTPGVVFRDISPVLKDPASFRAAIGLLARHLKATHGGRIDYIAGLDSRGFLFGPSLAQELGLGCVLIRKRGKLPGPTLWASYSLEYGKAELEIQKDALEPGQRVVVVDDLLATGGTMNAACELLGRLQAEVLECVSLVELTSLKGREKLAPVPFFSLLQYE
notes: Adenine phosphoribosyltransferase, human; also called APRT; source: insect cell/baculovirus, purified, spotted (Invitrogen Protoarray v4.0)
B4: Nucleolar protein family A, member 2 (natural protein, human, UniProt Q9NX24 1-153, looked up)
chain: MTKIKADPDGPEAQAEACSGERTYQELLVNQNPIAQPLASRRLTRKLYKCIKKAVKQKQIRRGVKEVQKFVNKGEKGIMVLAGDTLPIEVYCHLPVMCEDRNLPYVYIPSKTDLGAAAGSKRPTCVIMVKPHEEYQEAYDECLEEVQSLPLPL
notes: Nucleolar protein family A, member 2, human; also called NOLA2; source: insect cell/baculovirus, purified, spotted (Invitrogen Protoarray v4.0)
B5: Tumor protein, translationally-controlled 1 (natural protein, human, UniProt P13693 1-172, looked up)
chain: MIIYRDLISHDEMFSDIYKIREIADGLCLEVEGKMVSRTEGNIDDSLIGGNASAEGPEGEGTESTVITGVDIVMNHHLQETSFTKEAYKKYIKDYMKSIKGKLEEQRPERVKPFMTGAAEQIKHILANFKNYQFFIGENMNPDGMVALLDYREDGVTPYMIFFKDGLEMEKC
notes: Tumor protein, translationally-controlled 1, human; also called TPT1; source: insect cell/baculovirus, purified, spotted (Invitrogen Protoarray v4.0)
B6: t-complex 10 (mouse)-like (natural protein, human, UniProt Q8TDR4 1-215, looked up)
chain: MLAGQLEARDPKEGTHPEDPCPGAGAVMEKTAVAAEVLTEDCNTGEMPPLQQQIIRLHQELGRQKSLWADVHGKLRSHIDALREQNMELREKLRALQLQRWKARKKSAASPHAGQESHTLALEPAFGKISPLSADEETIPKYAGHKNQSATLLGQRSSSNNSAPPKPMSLKIERISSWKTPPQENRDKNLSRRRQDRRATPTGRPTPCAERRGGV
notes: t-complex 10 (mouse)-like, human; also called TCP10L; source: insect cell/baculovirus, purified, spotted (Invitrogen Protoarray v4.0)
B7: LIM and cysteine-rich domains 1 (natural protein, human, UniProt Q9NZU5-1 1-365, looked up)
chain: MAKVAKDLNPGVKKMSLGQLQSARGVACLGCKGTCSGFEPHSWRKICKSCKCSQEDHCLTSDLEDDRKIGRLLMDSKYSTLTARVKGGDGIRIYKRNRMIMTNPIATGKDPTFDTITYEWAPPGVTQKLGLQYMELIPKEKQPVTGTEGAFYRRRQLMHQLPIYDQDPSRCRGLLENELKLMEEFVKQYKSEALGVGEVALPGQGGLPKEEGKQQEKPEGAETTAATTNGSLSDPSKEVEYVCELCKGAAPPDSPVVYSDRAGYNKQWHPTCFVCAKCSEPLVDLIYFWKDGAPWCGRHYCESLRPRCSGCDEIIFAEDYQRVEDLAWHRKHFVCEGCEQLLSGRAYIVTKGQLLCPTCSKSKRS
notes: LIM and cysteine-rich domains 1, human; also called LMCD1; source: insect cell/baculovirus, purified, spotted (Invitrogen Protoarray v4.0)
B8: Family with sequence similarity 128, member A (natural protein, human, UniProt Q6P582 1-158, looked up)
chain: MAAQGVGPGPGSAAPPGLEAARQKLALRRKKVLSTEEMELYELAQAAGGGIDPDVFKILVDLLKLNVAPLAVFQMLKSMCAGQRLASEPQDPAAVSLPTSSVPETRGRDKGSAALGGVLALAERSNHEGSSQRMPRQPSATRLPKGGGPGKSPTQGST
notes: also called FAM128A; source: insect cell/baculovirus, purified, spotted (Invitrogen Protoarray v4.0)
B9: DnaJ (Hsp40) homolog, subfamily C, member 8 (natural protein, human, UniProt O75937 1-253, looked up)
chain: MAASGESGTSGGGGSTEEAFMTFYSEVKQIEKRDSVLTSKNQIERLTRPGSSYFNLNPFEVLQIDPEVTDEEIKKRFRQLSILVHPDKNQDDADRAQKAFEAVDKAYKLLLDQEQKKRALDVIQAGKEYVEHTVKERKKQLKKEGKPTIVEEDDPELFKQAVYKQTMKLFAELEIKRKEREAKEMHERKRQREEEIEAQEKAKREREWQKNFEESRDGRVDSWRNFQANTKGKKEKKNRTFLRPPKVKMEQRE
notes: DnaJ (Hsp40) homolog, subfamily C, member 8, human; also called DNAJC8; source: insect cell/baculovirus, purified, spotted (Invitrogen Protoarray v4.0)
B10: Chromosome 19 open reading frame 12 (natural protein, human, UniProt Q9NSK7-4 1-141, looked up)
chain: MTIMVEDIMKLLCSLSGERKMKAAVKHSGKGALVTGAMAFVGGLVGGPPGLAVGGAVGGLLGAWMTSGQFKPVPQILMELPPAEQQRLFNEAAAIIRHLEWTDAVQLTALVMGSEALQQQLLAMLVNYVTKELRAEIQYDD
notes: Chromosome 19 open reading frame 12, human; also called C19ORF12; source: insect cell/baculovirus, purified, spotted (Invitrogen Protoarray v4.0)
B11: Hemoglobin, zeta (natural protein, human, UniProt P02008 1-142, looked up)
chain: MSLTKTERTIIVSMWAKISTQADTIGTETLERLFLSHPQTKTYFPHFDLHPGSAQLRAHGSKVVAAVGDAVKSIDDIGGALSKLSELHAYILRVDPVNFKLLSHCLLVTLAARFPADFTAEAHAAWDKFLSVVSSVLTEKYR
notes: Hemoglobin, zeta, human; also called HBZ; source: insect cell/baculovirus, purified, spotted (Invitrogen Protoarray v4.0)
B12: Vesicle-associated membrane protein 3 (cellubrevin) (natural protein, human, UniProt Q15836 1-100, looked up)
chain: MSTGPTAATGSNRRLQQTQNQVDEVVDIMRVNVDKVLERDQKLSELDDRADALQAGASQFETSAAKLKRKYWWKNCKMWAIGITVLVIFIIIIIVWVVSS
notes: Vesicle-associated membrane protein 3 (cellubrevin), human; also called VAMP3; source: insect cell/baculovirus, purified, spotted (Invitrogen Protoarray v4.0)

Biological target: T1, NEMO (NF-κB essential modulator), tag-free, biotinylated (human, UniProt Q9Y6K9 1-419, biotin (in vitro biotinylation kit, biotin:NEMO molar ratio 9:1))
T1 construct: NEMO, NF-κB essential modulator, human, 48 kDa; also called biotinylated NEMO; biotin-NEMO; source: E. coli BL21(DE3), purified (glutathione sepharose), GST removed with thrombin, biotinylated in vitro
Experiment: peptide or protein array; Invitrogen Protoarray v4.0, about 8,400 human proteins spotted on nitrocellulose-coated glass slides; 10 µg biotinylated tag-free NEMO in 120 µl probing buffer (PBS, 0.5 mM DTT, 5 mM MgCl2, 5% glycerol, 0.05% Triton X-100), 4°C, 1.5 h; bound NEMO detected with labelled streptavidin; hits Z-score > 3, hits of the biotin-GST control array subtracted
Conditions: both partners purified

Row | Binder | binding result
1 | B1 | binds
2 | B2 | binds
3 | B3 | binds
4 | B4 | binds
5 | B5 | binds
6 | B6 | binds
7 | B7 | binds
8 | B8 | binds
9 | B9 | binds
10 | B10 | binds
11 | B11 | binds
12 | B12 | binds

Source: publication PMC2808332, “Expanding the Substantial Interactome of NEMO Using Protein Microarrays” (PLoS ONE, 2010)
